Results as given in patent US20210403582A1 (JACOBIO PHARMACEUTICALS, published 2021).
Read-outs that look alike come from different tables or passages of the source.

T1: human OSM (human, UniProt P13725 26-221, limits assumed)
T1 sequence (looked up): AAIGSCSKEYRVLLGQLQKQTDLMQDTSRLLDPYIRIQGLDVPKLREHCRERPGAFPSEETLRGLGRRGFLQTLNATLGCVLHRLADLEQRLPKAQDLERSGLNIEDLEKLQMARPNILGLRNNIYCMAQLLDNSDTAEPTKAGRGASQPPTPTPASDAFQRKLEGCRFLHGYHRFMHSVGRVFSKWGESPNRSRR

T2: human CNTF (human, UniProt P26441 1-200, limits assumed)
T2 sequence (looked up): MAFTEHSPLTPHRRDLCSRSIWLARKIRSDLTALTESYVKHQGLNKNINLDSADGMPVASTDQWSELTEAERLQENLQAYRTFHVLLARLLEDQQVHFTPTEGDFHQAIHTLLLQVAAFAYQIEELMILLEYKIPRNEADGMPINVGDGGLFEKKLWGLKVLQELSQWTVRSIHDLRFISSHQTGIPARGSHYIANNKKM


Tests used:
human LIF protein [1] = target: T3, human LIF protein (human, UniProt P15018 23-202); test: ELISA, human LIF coated at 1 µg/mL, A450
T3 construct: Bought recombinant protein (Sino Biological / Yiqiao Shenzhou 14890-HNAH) in most assays; also called recombinant human LIF protein; rhLIF
Experimental: (§1) The recombinant human LIF protein was diluted to 1 μg/mL, was coated on the enzyme label plate, 100 μL of the protein was added into every well, and incubated overnight in 4° C. The enzyme label plates were taken out next day, and the liquid was discarded, and were washed with PBST three times and blocked with 2% BSA in PBS for 1 h at room temperature, then washed with PBST three times, and added anti-human LIF antibodies 38E10E1C11, 5D8 and P36-033 at different concentrations and incubated for 1 h at room temperature. The liquid was discarded, and the plates were washed with PBST four times. The plates were added with HRP-labeled goat anti-mouse Fab antibody or goat anti-human FC antibody and incubated for 1 h at room temperature. Then the liquid was discarded, and the plates were washed four times with PBST and incubated with TMB colored solution in 10 minutes at room temperature. Stop color development by adding 2 mol/L H₂SO₄, and the absorption value at 450 nm is quantitated using an automated plate photometer, and the results were shown in FIG. 1.

[2] = target: T4, recombinant mouse LIF protein (mouse, UniProt P09056 24-203); test: ELISA, mouse LIF coated at 1 µg/mL, A450
Experimental: (§2) The recombinant mouse LIF protein (purchased from ACRO Biosystems) was diluted to 1 μg/mL, and was coated on the enzyme label plate, 100 μL of protein was added into every well, and incubated overnight in 4° C. The enzyme label plates were taken out next day, and the liquid was discarded, and were washed with PBST three times and blocked with 2% BSA in PBS for 1 h at room temperature, then washed with PBST three times, and added anti-human LIF antibodies 38E10E1C11, 5D8 and P36-033 at different concentrations and incubated for 1 h at room temperature. The liquid was discarded, and the plates were washed with PBST four times. The plates were added with HRP-labeled goat anti-mouse Fab antibody or goat anti-human FC antibody and incubated for 1 h at room temperature. Then the liquid was discarded, and the plates were washed four times with PBST and incubated with TMB colored solution in 10 minutes at room temperature. Stop color development by adding 2 mol/L H₂SO₄, and the absorption value at 450 nm is quantitated using an automated plate photometer, and the results were shown in FIG. 2.

human OSM [3] = target: T1, human OSM; test: ELISA, human OSM coated at 1 µg/mL, A450
Experimental: (§3) The human LIF, human IL-6, human OSM, human CNTF (purchased from Sino biological) were coated on the enzyme label plate at a concentration of 1 μg/mL separately, and the anti-human LIF antibodies 38E10E1C11, P36-033 and 5D8 at different concentrations were added separately and incubated for 1 h at room temperature. Then the plates were washed four times with PBST and incubated with HRP-labeled goat anti-mouse FC secondary antibody for 1 h at room temperature. Then the plates were washed four times with PBST and added with TMB colored solution for color development at room temperature for 10 minutes. The absorption value at 450 nm is quantitated by the enzyme-labeling measuring instrument, and the data was analyzed and plotted using Origin pro 9 software.

human CNTF [4] = target: T2, human CNTF; test: ELISA, human CNTF coated at 1 µg/mL, A450
Experimental: as §3

human IL-6 = human IL-6 (human, UniProt P05231 30-212, limits assumed); test: ELISA, human IL-6 coated at 1 µg/mL, A450
Experimental: as §3

human LIF protein [5] = target: T3, human LIF protein; test: competition ELISA: human LIF coated at 1 µg/mL, GP130-Fc 20 µg/mL added together with the antibody, A450
Experimental: The recombinant human LIF protein was coated on the enzyme label plates at a concentration of 1 μg/mL, GP130 protein (expressed fusedly with human FC) at a concentration of 20 μg/mL was added (50 μL/well), and the anti-human LIF antibodies P36-033 and 38E10E1C11 at different concentrations simultaneously were added separately (50 μL/well), and incubated for 2 h at room temperature. At the same time, the control wells added with antibodies and without GP130 protein were set. Incubated for 2 h at room temperature. After washed four times with PBST, incubated with HRP-labeled goat anti-mouse FC secondary antibody for 1 h at room temperature. Then the plates were washed four times with PBST and added with TMB coloured solution in for 10 minutes. The absorption value at 450 nm is quantitated using an enzyme-labelling measuring instrument, and the data was analyzed and plotted using Origin pro 9 software.

human LIF protein [6] = target: T3, human LIF protein; test: competition ELISA: human LIF coated at 1 µg/mL, GP130-Fc 12 µg/mL added together with the antibody, HRP anti-human Fc, A450
human LIF protein [7] = target: T3, human LIF protein; test: ELISA, human LIF coated at 1 µg/mL, A450; remark: listed apart in the source
Experimental: as §1

[8] = target: T4, recombinant mouse LIF protein; test: ELISA, mouse LIF coated at 1 µg/mL, A450; remark: listed apart in the source
Experimental: as §2

human OSM [9] = target: T1, human OSM; test: ELISA, human OSM coated at 1 µg/mL, A450, bar chart of eight antibody concentrations
Experimental: as §3

human CNTF [10] = target: T2, human CNTF; test: ELISA, human CNTF coated at 1 µg/mL, A450, bar chart of eight antibody concentrations
Experimental: as §3

T3 sequence (P15018 23-202 limits assumed): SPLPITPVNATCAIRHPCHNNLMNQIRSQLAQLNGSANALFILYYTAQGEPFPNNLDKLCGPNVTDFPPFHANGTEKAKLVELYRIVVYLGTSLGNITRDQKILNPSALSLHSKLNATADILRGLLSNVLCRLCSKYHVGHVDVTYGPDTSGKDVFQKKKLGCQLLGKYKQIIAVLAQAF
Sequence of human IL-6 (P05231 30-212 limits assumed): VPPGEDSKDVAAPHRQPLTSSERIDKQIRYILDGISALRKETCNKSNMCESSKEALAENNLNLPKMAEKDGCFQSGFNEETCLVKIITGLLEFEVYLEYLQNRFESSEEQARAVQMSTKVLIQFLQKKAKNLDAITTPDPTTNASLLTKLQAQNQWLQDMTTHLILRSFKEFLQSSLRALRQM

Row | Binder | EC50 (read off the curve) (human LIF protein [1]) | binding result [2] | binding result (human OSM [3]) | binding result (human CNTF [4]) | binding result (human IL-6) | IC50 (read off the curve) (human LIF protein [5]) | IC50 (read off the curve) (human LIF protein [6]) | EC50 (read off the curve) (human LIF protein [7]) | EC50 (read off the curve) [8] | EC50 (read off the curve) [2] | binding result (human OSM [9]) | binding result (human CNTF [10])
1 | P36-033 antibody (antibody, mouse IgG1, kappa, V domains shown, From a phage display library of immunised mice; full-length chains with mouse constant regions; also called P36-033 mAb) VH: EVMLVESGGGLVQPGGSRRLSCAASGFTFSSYPMFWVRQTPEKRMEWVAYISNGGDSTYYPDTVKGRFTVSRDNAKNTLYLQMSSLKSVDTAIYYCVRPSARYDEWFAYWGQGTLVTVSA VL: DIVMTQSHKFMSTSVGDRVSITCKASQDVSNAVAWYQQKPGQSPRLLIYWASFRHTGVPDRFTGSGSGTEYTLTISRVQAEDLALYYCQQHYNTPYTFGGGTRLEIKR | ~0.05 µg/mL | binds | no binding (tested: 25 ug/ml) | no binding (tested: 25 ug/ml) | no binding (tested: 25 ug/ml) | ~0.1 µg/mL | ~0.1 µg/mL | – | – | – | – | –
2 | 5D8 antibody (positive control) (antibody, human IgG1, kappa, V domains shown) VH: QVQLQESGGGLVKPGGSLRLSCAASGFTFSHAWMHWVRQAPGKGLEWVGQIKAKSDDYATYYAESVKGRFTISRDDSKNTLYLQMNSLKTEDTAVYYCTCWEWDLDFWGQGTMVTVSS VL: DIVMTQTPLSSPVTLGQPASISCRSSQSLLDSDGHTYLNWLQQRPGQPPRLLIYSVSNLESGVPDRFSGSGAGTDFTLKISRVEAEDVGVYYCMQATHAPPYTFGQGTKLEIKR | ~0.8 µg/mL | – | – | – | – | – | – | ~0.2 µg/mL | ~0.3 µg/mL | ~0.4 µg/mL | binds | binds
